# Reference: patent publication US20200123233A1
# Positions count from the first letter of the chain named.
# B1: LG202C8 (VHH)
# VHH: EVQLVESGGGLVQPGGSLRLSCTGSGFTFSSYWMDWVRQTPGKDLEYVSGISPSGSNTDYADSVKGRFTISRDNAKNTLYLQMNSLKPEDTALYYCRRSLTLTDSPDLRSQGTQVTVSS
# B2: 203H9 (VHH)
# VHH: B1 VHH with S56G, K87Q
# B3: LG192A8 (VHH)
# VHH: EVQLVESGGGLVQAGGSLRLSCAASERTVIAYTMGWFRRAPGKERDFVAAMNWNGGNTIYADSAKGRFTISRDNAKNTVYLQMNSLKAEDTAVYYCAARPRFWGSYEYDYWGQGTQVTVSS
# B4: 203B12 (VHH)
# VHH: EVQLVESGGGLVQPGGSLRLSCAASGFTFSSYAMGWVRRAPGEGLEWVSSISSGGALPTYADSVKGRFTISRDNVKNTLYLQMNSLKPEDTAVYSCEKYAGSMWTSERDAWGQGTQVTVSS
# B5: RSVNC41 (VHH)
# VHH: EVQLVESGGGLVQAGGSLSISCAASGGSLSNYVLGWFRQAPGKEREFVAAINWRGDITIGPPNVEGRFTISRDNAKNTGYLQMNSLAPDDTAVYYCGAGTPLNPGAYIYDWSYDYWGRGTQVTVSS
# Columns and labels:
# [1] = molecular target: H5 Hemagglutinin (HA, A/Vietnam/1203/2004 (H5N1), Protein Sciences Cat. No. 3006) (influenza A virus A/Vietnam/1203/2004 (H5N1)); assay: SPR (Biacore), H5 coupled on CM5, 1:1 Langmuir model
# [2] = substrate: F protein of hRSV strain Long (human respiratory syncytial virus, strain Long) (UniProt P12568); assay: cell-based or functional assay
# [3] = molecular target: Rabies virus glycoprotein G, Challenge Virus Standard (CVS)-11 strain (Rabies virus, strain CVS-11 (genotype 1 Lyssavirus)) (UniProt O92284); assay: cell-based or functional assay
# [4] = molecular target: Rabies virus glycoprotein G, ERA strain (attenuated vaccine strain, ATCC VR332) (Rabies virus, ERA strain (genotype 1 lyssavirus)) (UniProt P03524); assay: cell-based or functional assay
# [5] = substrate: F protein of RSV A-2 (human respiratory syncytial virus, strain A-2) (UniProt P03420); assay: cell-based or functional assay
# [6] = substrate: F protein of RSV Long (RSV LONG M-2) (human respiratory syncytial virus, strain Long) (UniProt P12568); assay: cell-based or functional assay
# [7] = substrate: F protein of RSV B-1 (human respiratory syncytial virus, strain B-1) (UniProt P13843); assay: cell-based or functional assay
binder,measurement,setting,value
B1,Kd,[1],10 nM
B2,Kd,[1],15.5 nM
B3,"hRSV micro neutralization, strain Long on Hep2 cells",[2],> 3 µM
same,"CVS-11 neutralizing antibody titer (RFFIT), IU/mg",[3],< 0.77 IU/mg
same,"CVS-11 neutralizing antibody titer (RFFIT), IU/ml",[3],< 0.5 IU/ml
same,"CVS-11 neutralizing antibody titer (RFFIT), IU/µM",[3],< 0.02 IU/µM
same,"CVS-11 neutralizing antibody titer (RFFIT), nM IC50",[3],> 4840 nM
same,ERA neutralizing antibody titer (RFFIT): EU/mg,[4],< 0.77 EU/mg
same,ERA neutralizing antibody titer (RFFIT): EU/ml,[4],< 0.5 EU/ml
same,ERA neutralizing antibody titer (RFFIT): EU/µM,[4],< 0.02 EU/µM
same,ERA neutralizing antibody titer (RFFIT): nM IC50,[4],> 4840 nM
B4,Kd,[1],30 nM
B5,"RSV neutralization IC50 (nM) (n = 2), A-2",[5],26 nM
same,"RSV neutralization IC50 (nM) (n = 2), Long",[6],58 nM
same,"RSV neutralization IC50 (nM) (n = 2), B1",[7],4000 nM
